Assay results reported in patent publication EP4755915A1 (Medytox Inc., dated 2026).

Key:
[1] = biological target: T1, fetal acetylcholine receptor (AChR) on the cell membrane of TE671 cells (human, UniProt P02708 21-457; P11230 24-501; Q07001 22-517; P07510 23-517); experiment: flow cytometry competition on TE671 cells expressing fetal AChR; competitor biotinylated mAb637 at 8 µg/ml, detected with labelled streptavidin
T1 construct: whole, on cells; The subunit make-up (alpha2, beta, gamma, delta) is general knowledge of the fetal receptor; also called autoantigen AChR
T1 sequence (P02708 21-457, chain 1 of 4): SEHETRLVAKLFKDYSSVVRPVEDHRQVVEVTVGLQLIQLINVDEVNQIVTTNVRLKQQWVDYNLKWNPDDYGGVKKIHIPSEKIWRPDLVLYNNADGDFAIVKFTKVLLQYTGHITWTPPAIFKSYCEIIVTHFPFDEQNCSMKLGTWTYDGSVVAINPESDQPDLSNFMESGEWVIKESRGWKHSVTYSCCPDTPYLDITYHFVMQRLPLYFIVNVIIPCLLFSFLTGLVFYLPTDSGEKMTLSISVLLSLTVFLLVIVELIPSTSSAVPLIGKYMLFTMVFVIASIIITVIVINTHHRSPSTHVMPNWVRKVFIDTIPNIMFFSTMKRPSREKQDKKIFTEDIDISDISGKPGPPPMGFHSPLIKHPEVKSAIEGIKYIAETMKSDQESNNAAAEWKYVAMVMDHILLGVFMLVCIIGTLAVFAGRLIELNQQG
T1 sequence (P11230 24-501, chain 2 of 4): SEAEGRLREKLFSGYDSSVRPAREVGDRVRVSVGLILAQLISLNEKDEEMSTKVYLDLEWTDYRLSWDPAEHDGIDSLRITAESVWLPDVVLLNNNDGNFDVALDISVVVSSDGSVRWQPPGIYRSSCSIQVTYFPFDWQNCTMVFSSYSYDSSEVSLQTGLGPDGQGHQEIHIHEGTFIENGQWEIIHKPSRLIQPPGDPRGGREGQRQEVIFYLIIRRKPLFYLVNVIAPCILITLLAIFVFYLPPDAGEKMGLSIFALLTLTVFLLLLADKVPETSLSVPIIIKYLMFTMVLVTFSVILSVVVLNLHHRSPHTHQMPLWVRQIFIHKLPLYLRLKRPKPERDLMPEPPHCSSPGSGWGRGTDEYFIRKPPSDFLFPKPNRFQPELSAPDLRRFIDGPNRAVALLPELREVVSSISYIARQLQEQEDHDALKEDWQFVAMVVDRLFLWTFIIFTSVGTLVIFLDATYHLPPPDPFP
T1 sequence (Q07001 22-517, chain 3 of 4): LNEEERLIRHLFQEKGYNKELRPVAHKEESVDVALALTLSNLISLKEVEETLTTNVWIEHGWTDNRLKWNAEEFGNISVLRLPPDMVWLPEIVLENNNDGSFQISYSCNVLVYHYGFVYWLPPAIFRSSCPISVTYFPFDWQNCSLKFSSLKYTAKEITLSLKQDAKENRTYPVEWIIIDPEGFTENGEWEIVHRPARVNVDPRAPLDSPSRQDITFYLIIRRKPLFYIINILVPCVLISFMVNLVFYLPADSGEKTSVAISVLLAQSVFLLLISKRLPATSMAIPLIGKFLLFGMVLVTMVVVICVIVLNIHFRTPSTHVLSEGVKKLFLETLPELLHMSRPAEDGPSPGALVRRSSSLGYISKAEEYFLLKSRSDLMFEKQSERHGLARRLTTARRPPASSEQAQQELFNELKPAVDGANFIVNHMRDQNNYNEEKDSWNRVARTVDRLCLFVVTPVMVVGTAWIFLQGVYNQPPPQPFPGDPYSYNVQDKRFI
T1 sequence (P07510 23-517, chain 4 of 4): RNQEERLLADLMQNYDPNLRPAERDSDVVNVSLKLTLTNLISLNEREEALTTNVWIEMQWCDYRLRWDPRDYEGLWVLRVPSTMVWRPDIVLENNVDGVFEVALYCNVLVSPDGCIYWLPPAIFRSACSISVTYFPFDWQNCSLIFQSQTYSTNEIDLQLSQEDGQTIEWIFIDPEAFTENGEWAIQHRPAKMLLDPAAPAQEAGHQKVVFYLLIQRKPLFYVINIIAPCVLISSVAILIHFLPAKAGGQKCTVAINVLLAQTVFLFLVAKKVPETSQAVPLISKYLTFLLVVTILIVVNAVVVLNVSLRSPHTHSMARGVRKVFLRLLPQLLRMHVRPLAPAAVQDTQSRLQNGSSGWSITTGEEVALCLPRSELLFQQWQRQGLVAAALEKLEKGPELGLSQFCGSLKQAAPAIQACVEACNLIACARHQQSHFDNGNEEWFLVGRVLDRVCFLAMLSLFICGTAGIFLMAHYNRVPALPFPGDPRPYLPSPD

[2] = biological target: AChR (A, B, D and E) expressed on recombinant 293T cells; experiment: cell-based or functional assay

Binder	binding result [1]	decrease of apoptosis (CDC cell death) caused by humanized mAb35, at 0.15 µg/ml [2]	decrease of the ratio of C5b-9 positive cells caused by humanized mAb35, at 0.15 µg/ml [2]
mAb637 B (antibody, human IgG2, kappa, also called candidate antibody) heavy: NFELTQPHSVSESPGKTVTISCTRSSGSIASNYVQWYQQRPGSSPTTVIYEDNQRPSGVPDRFSGSIDSSSNSASLTISGLKTEDEADYYCQSYDSNSGGRVFGGGTKLTVLRTVAAPSVFIFPPSDEQLKSGTASVVCLLNNFYPREAKVQWKVDNALQSGNSQESVTEQDSKDSTYSLSSTLTLSKADYEKHKVYACEVTHQGLSSPVTKSFNRGECERKCCVECPPCPAPPVAGPSVFLFPPKPKDTLMISRTPEVTCVVVDVSQEDPEVQFNWYVDGVEVHNAKTKPREEQFNSTYRVVSVLTVLHQDWLNGKEYKCKVSNKGLPSSIEKTISKAKGQPREPQVYTLPPSQEEMTKNQVSLTCLVKGFYPSDIAVEWESNGQPENYKTTPPVLDSDGSFFLYSRLTVDKSRWQEGNVFSCSVMHEALHNHYTQKSLSLSLGK light: QVQLLESGGGLVKPGGSLRLSCAASGFKSTDYYMAWVRQAPGRGLEWVSFISGRVFTNYTASVRGRFTVFREDDNTSVYLQMSRLRVEDTAVYYCARLRGIFRGPLKPLEYYFDLWGRGTLVTVSSASTKGPSVFPLAPCSRSTSESTAALGCLVKDYFPEPVTVSWNSGALTSGVHTFPAVLQSSGLYSLSSVVTVPSSNFGTQTYTCNVDHKPSNTKVDKTV	binds		
mAb192 C IgG2/4 (antibody) heavy: DIQMTQSPPSLSASLGDKVTITCQASQDINKYIAWYQQKPGKAPRQLIRYTSILVLGTPSRFSGSGSGRDFSFSISNVASEDIASYYCLQYGNLYTFGAGTKLEIKRSSASTKGPSVFPLAPCSRSTSESTAALGCLVKDYFPEPVTVSWNSGALTSGVHTFPAVLQSSGLYSLSSVVTVPSSNFGTQTYTCNVDHKPSNTKVDKTVERKCCVECPPCPAPPVAGPSVFLFPPKPKDTLMISRTPEVTCVVVDVSQEDPEVQFNWYVDGVEVHNAKTKPREEQFNSTYRVVSVLTVLHQDWLNGKEYKCKVSNKGLPSSIEKTISKAKGQPREPQVYTLPPSQEEMTKNQVSLTCLVKGFYPSDIAVEWESNGQPENYKTTPPVLDSDGSFFLYSRLTVDKSRWQEGNVFSCSVMHEALHNHYTQKSLSLSLGK light: QVQLLESGPGLVQPSQTLSLTCTVSGFSLTTNGVSWVRQPPGKGLEWIAAISSGGSPYYNSALKSRLSINRDTSKSQVFLKMNSLQTEDTAIYFCTREDGWNYFDYWGPGTMVTVSSASVAAPSVFIFPPSDEQLKSGTASVVCLLNNFYPREAKVQWKVDNALQSGNSQESVTEQDSKDSTYSLSSTLTLSKADYEKHKVYACEVTHQGLSSPVTKSFNRGEC		> 37%	> 60%
mAb192 C IgG1 (antibody) heavy: not shown light: QVQLLESGPGLVQPSQTLSLTCTVSGFSLTTNGVSWVRQPPGKGLEWIAAISSGGSPYYNSALKSRLSINRDTSKSQVFLKMNSLQTEDTAIYFCTREDGWNYFDYWGPGTMVTVSSASVAAPSVFIFPPSDEQLKSGTASVVCLLNNFYPREAKVQWKVDNALQSGNSQESVTEQDSKDSTYSLSSTLTLSKADYEKHKVYACEVTHQGLSSPVTKSFNRGEC		> 37%	> 60%
mAb192 C IgG4 (antibody) heavy: not shown light: QVQLLESGPGLVQPSQTLSLTCTVSGFSLTTNGVSWVRQPPGKGLEWIAAISSGGSPYYNSALKSRLSINRDTSKSQVFLKMNSLQTEDTAIYFCTREDGWNYFDYWGPGTMVTVSSASVAAPSVFIFPPSDEQLKSGTASVVCLLNNFYPREAKVQWKVDNALQSGNSQESVTEQDSKDSTYSLSSTLTLSKADYEKHKVYACEVTHQGLSSPVTKSFNRGEC		> 37%	> 60%
